According to US6121020, “Hepatitis C E1 and E2 polypeptides and methods of obtaining the same” (Chiron Corporation, dated 2000):

Target: probable NS4B (27 kDa), expressed from pTM1-NS25 (hepatitis C virus, UniProt P26664)
Assay: co-immunoprecipitation with anti-E2 antibody from lysates of cells co-transfected with pTM1-NS25

B1: E2 species encoded by the template terminating at amino acid 699 (other)
chain: ETHVTGGSAGHTVSGFVSLLAPGAKQNVQLINTNGSWHLNSTALNCNDSLNTGWLAGLFYHHKFNSSGCPERLASCRPLTDFDQGWGPISYANGSGPDQRPYCWHYPPKPCGIVPAKSVCGPVYCFTPSPVVVGTTDRSGAPTYSWGENDTDVFVLNNTRPPLGNWFGCTWMNSTGFTKVCGAPPCVIGGAGNNTLHCPTDCFRKHPDATYSRCGSGPWITPRCLVDYPYRLWHYPCTINYTIFKIRMYVGGVEHRLEAACNWTRGERCDLEDRDRSELSPLLLTTTQWQVLPCSFTTLPALSTGLIHLHQNIVDV
binding result: no binding
